Data as given in patent US20120301476A1 (TORAY INDUSTRIES, published 2012).

B1: anti-CAPRIN-1 mouse monoclonal antibody #4 (antibody, V domains shown)
VH: GAELVRSGASVKMSCKASGYSFTDYNMYWVKQTPGQGLEWIGYIYPGNGGTNYNQKFKGKATLTADTSSSTAYMQISSLTSEDSAVYFCARDYDDGGYAMDYWGQGTTVTVSS
VL: DIQMTQSPASLSASVGETVTITCRASGNIHNYLTWYQQKQGKSPQLLVYNAKTLADGVPSRFSGSGSGTQYSLKINRLQPEDFGSYYCQHFWNIPWTFGGGTKLNSR
B2: anti-CAPRIN-1 mouse monoclonal antibody #5 (antibody, V domains shown)
VH: GAELVRSGASVKMSCKASGYSFTDYNMYWVKQTPGQGLEWIGYIYPGNGGTNYNQKFKGKATLTADTSSSTAYMQISSLTSEDSAVYFCARDYDDGGYAMDYWGQGTTVTVSS
VL: DIQMTQSPASLSASVGETVTITCRASGNIHNYLTWYQQKQGKSPQLLVYNAKTLADGVPSRFSGSGSGTQYSLKINRLQPEDFGSYYCQHFWNIPWTFGGGTKLNSR
notes: Mouse hybridoma antibody; detected with anti-mouse IgG
B3: anti-CAPRIN-1 mouse monoclonal antibody #3 (antibody, V domains shown)
VH: GGGLVKPGGSLKLSCAASGFTFSSYGMSWVRQTPEKRLEWVATISSGGSYTYYPDSVKGRFTISRDNAKNTLYLQMSSLRSEDTAMYYCASLASYYFDYWGQGTTLTVSS
VL: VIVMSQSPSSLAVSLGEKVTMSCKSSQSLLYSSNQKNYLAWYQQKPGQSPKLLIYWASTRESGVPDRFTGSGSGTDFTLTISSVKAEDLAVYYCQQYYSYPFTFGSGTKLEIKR
B4: anti-CAPRIN-1 mouse monoclonal antibody #6 (antibody, V domains shown)
VH: DAELVKPGASVKISCKASGYTFTDHSIHWVQQKPEQGLEWIGYISPGNGNIKYNEKFKGKATLTADKSSSTAYMQLNSLTSEDSAVYFCKRSLGRGGPYYFDYWGQGTTVTVSS
VL: DIVLTQAAPSLPVTPGESVSISCRSSKSLLHSNGNTYLYWFLQRPGQSPQLLIYRMSNLASGVPDRFSGSGSGTAFTLRISRVEAEDVGVYYCMQHREYPVTFGSGPN
notes: as for B2

Tests used:
[1] = target: T1, human CAPRIN-1 protein on the cell surfaces of human cancer cell lines and in human cancer tissues (human, UniProt Q14444 2-709); test: cell-based or functional assay
T1 sequence (looked up): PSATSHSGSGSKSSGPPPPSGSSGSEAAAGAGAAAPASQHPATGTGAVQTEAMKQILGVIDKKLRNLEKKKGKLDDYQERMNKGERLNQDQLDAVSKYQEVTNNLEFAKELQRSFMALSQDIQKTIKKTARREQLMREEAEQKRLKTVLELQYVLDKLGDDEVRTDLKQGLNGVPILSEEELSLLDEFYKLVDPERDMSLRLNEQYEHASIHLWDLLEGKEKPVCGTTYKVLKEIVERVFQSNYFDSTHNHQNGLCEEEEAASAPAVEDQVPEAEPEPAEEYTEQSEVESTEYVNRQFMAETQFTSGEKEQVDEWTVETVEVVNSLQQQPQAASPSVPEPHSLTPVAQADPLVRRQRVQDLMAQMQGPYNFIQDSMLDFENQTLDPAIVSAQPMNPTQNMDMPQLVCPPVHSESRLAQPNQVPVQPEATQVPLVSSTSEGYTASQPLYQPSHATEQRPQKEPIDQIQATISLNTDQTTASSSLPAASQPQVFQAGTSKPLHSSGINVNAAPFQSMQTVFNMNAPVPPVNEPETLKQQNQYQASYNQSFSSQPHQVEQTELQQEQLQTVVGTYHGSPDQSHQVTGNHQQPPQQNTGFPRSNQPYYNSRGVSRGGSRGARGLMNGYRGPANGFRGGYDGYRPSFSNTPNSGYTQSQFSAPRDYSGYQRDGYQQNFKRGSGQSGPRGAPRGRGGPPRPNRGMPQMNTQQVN

[2] = target: T1, human CAPRIN-1 protein on the cell …; test: flow cytometry on the listed human cancer cell lines, culture supernatant, against negative control
Method: 10⁶ cells of each cell line were centrifuged in a 1.5 ml microcentrifuge tube. Each cell culture supernatant (100 μl) of CHO-K1 cells containing #1 obtained in (2) above and hybridomas producing #2, #3, #4, #5, and #6 obtained in Example 3 was added and then left to stand on ice for 1 hour. After washing with PBS, a FITC-labeled goat anti-human IgG (H+L) antibody (SouthernBiotech) and a FITC-labeled anti-mouse IgG (H+L) antibody (Invitrogen) diluted 500-fold with PBS containing 0.1% FBS were added and then left to stand on ice for 1 hour. After washing with PBS, fluorescence intensity was measured using a FACS Calibur (Becton, Dickinson). Meanwhile, procedures similar to the above were performed using a culture supernatant of CHO-K1 cells into which no antibody gene had been introduced and medium for culturing hybridomas, so that a negative control sample was prepared. […] Specifically, when the antibody #1 was used, fluorescence intensity was enhanced to 4700% in the case of SK-BR-3 and 5500% in the case of MDA-MB-231V. Also, when the antibodies #2, #3, #4, #5, and #6 were used, fluorescence intensity was enhanced. […] The percentage of enhancement in the above fluorescence intensity was expressed as percentage of increase in mean fluorescence intensity (MFI level) in each type of cell and calculated by the following formula.

[3] = target: T2, peptide of SEQ ID NO: 69 (partial sequence in the polypeptide of SEQ ID NO: 37) (human); test: ELISA on immobilised synthetic peptides
T2 peptide: QQPQAASPSVPE
Method: (§1) Each peptide was dissolved in 0.1M sodium carbonate buffer (pH 9.6) at a concentration of 30 μg/ml, added to a 96-well plate (Nunc, Product No. 436006) at 100 μl per well, and then left to stand at 4° C. overnight. The solution was discarded, 10 mM ethanolamine/0.1M sodium carbonate buffer (PH 9.6) was added at 200 μl per well, and then the plate was left to stand at room temperature for 1 hour. The solution was discarded, the plate was washed twice with PBS (PBST) containing 0.5% Tween20, so that the plate with each peptide immobilized thereto was prepared.
(§2) A cell culture supernatant containing the human-chicken chimeric monoclonal antibody (#1) and the mouse monoclonal antibodies (#2, #3, #4, #5, and #6) obtained in Example 4 (2) was added to the plate at 50 μl per well. After 1 hour of shaking at room temperature, the solution was removed, and then the plate was washed three times with PBST. Next, an HRP-labeled anti-human IgG (Invitrogen) antibody diluted 3000- to 4000-fold with PBST (a secondary antibody solution) was added to each well of the human-chicken chimeric monoclonal antibody and an HRP-labeled anti-mouse IgG (Invitrogen) antibody diluted 3000- to 4000-fold with PBST (a secondary antibody solution) was added to each well of the mouse monoclonal antibody, at 50 μl per well, and then the solution was removed, followed by six times of washing with PBST.
(§3) A TMB substrate solution (Thermo) was added at 100 μl per well, and the plate was left to stand for 15 to 30 minutes for coloring reaction. After color development, 1N sulfuric acid was added at 100 μl per well to stop the reaction and then absorbances at 450 nm and 595 nm were measured using an absorption spectrometer. As a result, the polypeptide of SEQ ID NO: 37 was identified as a CAPRIN-1 partial sequence that is recognized by all of the anti-CAPRIN-1 monoclonal antibodies #1 to #6. Furthermore, the peptide of SEQ ID NO: 69 was identified as a partial sequence in the above polypeptide of SEQ ID NO: 37, which is recognized by the monoclonal antibodies #1, #4, and #5. […]

[4] = target: T3, peptide of SEQ ID NO: 70 (partial sequence in the polypeptide of SEQ ID NO: 37) (human); test: ELISA on immobilised synthetic peptides
T3 peptide: FTSGEKEQVDEW
Method: as §1, §2, §3

Binder	cytotoxic activity (ADCC) against A549 [1] [%]	cytotoxic activity (ADCC) against ACHN [1] [%]	cytotoxic activity (ADCC) against AML5 [1] [%]	cytotoxic activity (ADCC) against Caki-1 [1] [%]	cytotoxic activity (ADCC) against KYSE180 [1] [%]	cytotoxic activity (ADCC) against MDA-MB-157 [1] [%]	cytotoxic activity (ADCC) against MNK28 [1] [%]	cytotoxic activity (ADCC) against MNK45 [1] [%]	cytotoxic activity (ADCC) against QG56 [1] [%]	cytotoxic activity (ADCC) against Ramos [1] [%]	cytotoxic activity (ADCC) against SW480 [1] [%]	cytotoxic activity (ADCC) against SW756 [1] [%]	cytotoxic activity (ADCC) against T24 [1] [%]	cytotoxic activity (ADCC) against T98G [1] [%]	cytotoxic activity (ADCC) against U373 [1] [%]	percentage of increase in mean fluorescence intensity [2] [%]	binding result [3]	binding result [4]
B1	≥ 24	≥ 14	≥ 10	≥ 23	≥ 22	31	≥ 15	≥ 10	≥ 20	≥ 10	≥ 17	≥ 16	≥ 18	≥ 12	≥ 16	≥ 20	–	–
B2	≥ 24	≥ 14	≥ 10	≥ 23	≥ 22	30.9	≥ 15	≥ 10	≥ 20	≥ 10	≥ 17	≥ 16	≥ 18	≥ 12	≥ 16	≥ 20	binds	–
B3	≥ 24	≥ 14	≥ 10	≥ 23	≥ 22	32.4	≥ 15	≥ 10	≥ 20	≥ 10	≥ 17	≥ 16	≥ 18	≥ 12	≥ 16	≥ 20	–	–
B4	≥ 24	≥ 14	≥ 10	≥ 23	≥ 22	19	≥ 15	≥ 10	≥ 20	≥ 10	≥ 17	≥ 16	≥ 18	≥ 12	≥ 16	≥ 20	–	binds
